Results published in patent US20250289891A1 (AUTOLUS, published 2025).

Key:
[1] = biological target: T1, Recombinant purified FcRH5 Ig-8 domain (UniProt Q96RD9 743-850, limits assumed); assay: SPR, Biacore 8k, VHH-mIgG2a Fc captured by anti-mouse kit on CM5, FcRH5 Ig8 as analyte (500 nM, 2-fold dilutions), 1:1 Langmuir fit, 25 C
T1 construct: domain: Ig8
T1 sequence (looked up): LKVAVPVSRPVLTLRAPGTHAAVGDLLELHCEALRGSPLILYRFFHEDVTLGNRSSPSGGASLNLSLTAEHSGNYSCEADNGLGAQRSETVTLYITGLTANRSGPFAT
Description: (§1) Recombinant anti-FcRH5 antibodies in mouse IgG2a format were captured on flow cell 2 on a Series S CM5 chip (GE Healthcare), functionalised with anti-mouse capture kit according to manufacturer's recommendations (GE Healthcare). Antibodies were captured to a density of 160 RU using a Biacore 8k instrument. HBS-P+ buffer was used as running buffer in all experimental conditions. Recombinant purified FcRH5 Ig-8 domain at known concentrations (500 nM with 2-fold serial dilutions) used as the ‘analyte’ and injected over the respective flow cells with 150s contact time and 500s dissociation at 30 μl/minute of flow rate with a constant temperature of 25° C. In each experiment, flow cell 1 was unmodified and used for reference subtraction. A ‘0 concentration’ sensogram of buffer alone was used as a double reference subtraction to factor for drift. Data were fit to a 1:1 Langmuir binding model. Since a capture system was used, a local maximal analytical response (Rmax) parameter was used for the data fitting in each case.

[2] = biological target: T1, Recombinant purified FcRH5 Ig-8 domain; assay: SPR, Biacore 8k, VHH-mIgG2a Fc captured, FcRH5 Ig8 as analyte, 1:1 Langmuir fit, 25 C; footnote: kd outside instrument limits
Description: as §1

B1: Anti-FcRH5 VHH-Fc AU60390 (AbVec.aFcRH5.dAb-MIgG2a-Fc.Clone.C06) (Fc fusion)
chain: QVQLQQSGGGLVQAGDSLRLSCAASGRTFSNSTMGWFRQAPGKERKFVAVISWSGGTYAYAESVKGRFTISRDNAKNTVYLQMNSLKPEDTAVYYCAAARKGWSTRGDDYDYWGQGTQVTVS
notes: not shown: murine IgG2a Fc domain
- kon [1]: 50000 M⁻¹ s⁻¹
- Kd [2]: < 0.2 nM
- koff [2]: < 1e-05 s⁻¹
